The record followed here is patent US20120277143A1 (Janssen / Centocor, published 2012).

For assay [1], the target named is T1, human IL4 (human, UniProt P05112 25-153, biotinylated in the SPR and competition assays (sites not given)).
T1 construct: Peprotech #200-04, mature protein produced in E. coli; also called hIL4; Interleukin 4
T1 sequence: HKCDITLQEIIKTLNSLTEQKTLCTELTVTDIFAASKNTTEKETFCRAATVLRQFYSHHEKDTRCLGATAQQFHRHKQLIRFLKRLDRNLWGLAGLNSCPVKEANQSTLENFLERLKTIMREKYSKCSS
Put plainly: Luminex competition, 67 pM biotin-IL4 binding to IL4RA-Fc beads. How it is done: For biotinylation of IL4, recombinant human IL4 (Peprotech) was biotinylated at a 4:1 ratio using EZ-Link NHS-LC-Biotin (Pierce, #21336) for 2 hours at RT. The protein was dialyzed in PBS overnight to remove excess biotinylation reagent. Competition binding for cynomologous IL4 (SEQ ID NO: 5) was performed using the isolated protein biotinylated in the same manner.
AR protein inhibition of IL4 binding to IL4 RA was assessed using IL4 RA-Fc (R&D Systems), comprising the Gly24-His232 which represents the ECD (SEQ ID NO: 5) fused to a human IgGl-Fc and therefor a disulfide linked homodimer. The protein was conjugated to carboxylated Luminex microspheres according to the manufacturer's protocol. For neutralization experiments, 5000 IL4RA-Fc conjugated beads in 50 μl were added to each well of a 96-well filter plate (Millipore). Biotinylated human IL4 was mixed with an appropriate dilution of AR protein in Luminex Assay Buffer (PBS, 1% BSA, pH 7.4) to give a final concentration of 67 pM IL4. The plate was incubated for 1 hour at RT in the dark on a plate shaker, set to shake vigorously to avoid bead aggregation. The plate was washed twice with 150 μl of wash buffer (PBS, 0.1% BSA, pH 7.4, 0.05% Tween-20) using a vacuum manifold followed by the addition of 50 μl of Streptavidin PE at 25 μg/ml and incubated at RT for 20 minutes. The plates were washed again and 150 μl of sheath fluid was added and the plate was placed on the shaker for 5 minute. Plates were read using a Luminex® 100 system; data were plotted as a function of AR protein concentration. IC₅₀ values were determined by fitting the data to the equation for sigmoidal dose response using PRISM software (GraphPAD PRISM) (Table 6).

Assay [2] concerns the target T1, human IL4. In words: SPR ProteOn, biotin-IL4 on neutravidin chip, 1:1 fit. How it is done: Purified binders selected as “hits” were ranked by their affinity on a ProteOn XPR-36 instrument (Bio-Rad). ProteOn is an optical biosensor instrument that measures protein-protein interactions in real time, based on Surface Plasmon Resonance technology similar to Biacore (GE). A rapid experimental protocol was performed as follows: On a GLC sensor chip (Bio-Rad), Neutravidin (Thermo Scientific) was covalently immobilized to a density of >5000 RU using amine coupling chemistry as described by the manufacturer. On one flow cell, biotinylated IL4 (Peprotech) was immobilized to a level of 250 RU, while another flow cell was used as reference, with neutravidin immobilized only. […] The retrieved values were used to rank the AR proteins by their affinity.

The target in assay [3] is T1, human IL4. In words: cell-based or functional assay.

B1: C06_13A10 (designed binder)
chain: DLGKKLLEAARAGQDDEVRILMANGADVNVSDRIGNTPLHLAAVYVHLEIVEVLLKNGADVNALDDDGLTPLHLAAADGHLEIVEVLLKHGADVNATDSHVWTPLHLAAFFGHLEIVEVLLKYGADVNAQDKFGKTAFDISIDNGNEDLAEILQKLN
notes: ankyrin repeat protein; His-tagged, IMAC-purified
Take B1: the IC50 (commonly the concentration that gives 50% inhibition) in assay [1] is 0.0306 nM. In assay [2], binding was put at a Kd of 0.0592 nM, the koff (commonly a measure of how fast the partners let go of each other) was found to be 0.000149 s⁻¹ and the kon (usually a measure of how fast the partners come together) was determined as 2.52e+06 M⁻¹ s⁻¹. In assay [3], the “A549 TARC Inhibition IC50” value came out at 0.621 nM, the “HEK Stat6 Inhibition IC50” value is 0.0054 nM and the “Type 1 Complex inhibition IC50” value stood at 0.0066 nM.

B2: C06_24H1 (designed binder)
chain: DLGKKLLEAARAGQDDEVRILMANGADVNAHDNSGFTPLHLAAEIGHLEIVEVLLKYGADVNAADRMGDTPLHLAAFVGHLEIVEVLLKYGADVNAVDLAGVTPLHVAAFYGHLEIVEVLLKNGADVNAQDKFGKTAFDISIDNGNEDLAEILQKLN
notes: as for B1
B2 came in with an IC50 in assay [1] of 0.0717 nM. Also, in assay [3], the “HEK Stat6 Inhibition IC50” value turned out to be 0.241 nM.

B3: C06_26H2 (designed binder)
chain: DLGKKLLEAARAGQDDEVRILMANGADVNAYDSSGDTPLHVAAIDGHLEIVEVLLKHGADVNASDASGDTPLHLAADFGHLKIVEVLLKHGADVNAEDMIGITPLHLAAYNGHLEIVEVLLKNGADVNASDVHGFTPLHLAAFIGHLGIVEVLLKYDADVNAQDKFGKTAFDISIDNRNEDLAEILQKLN
notes: as for B1
As for B3, the IC50 in assay [1] turned out to be 0.0314 nM. In assay [2], the Kd (usually the free concentration of one partner at which half of the binding sites on the other are occupied at equilibrium, for simple one-to-one binding) is 0.0712 nM; the koff amounted to 0.000247 s⁻¹; the kon is 3.47e+06 M⁻¹ s⁻¹. Also, in assay [3], the “HEK Stat6 Inhibition IC50” value turned out to be 0.0033 nM.

B4: C06_19C3 (designed binder)
chain: DLGKKLLEAARAGQDDEVRILMANGADVNATDDWGDTLLHLAATDGHLEIVEVLLKNGADVNAIDAMGMTPLHLAAVYGYLEIVEVLLKNGADVNAMDFSGFTPLHLAAFSGHLEIVEVLLKYGADVNAQDKFGKTAFDISIDNGNEDLAEILQKLN
notes: as for B1
B4 gave a concentration for half-maximal inhibition (IC50) in assay [1] of 0.0063 nM. In assay [2], this molecule yielded a Kd of 0.101 nM, a koff of 9.73e-05 s⁻¹ and an on-rate (kon) of 962000 M⁻¹ s⁻¹. Also, the “HEK Stat6 Inhibition IC50” value in assay [3] came out at 0.0015 nM.

B5: C06_50E5 (designed binder)
chain: DLGKKLLEAARAGQDDEVRILMANGADANATDDWGDTLLHLAATDGHLEIVEVLLKNGADVNAIDAMGMTPLHLAAVYGYLEIVEVLLKNGADVNAMDFSGFTPLHLAAFSGHLEIVEVLLKYGADVNAQDKFGKTAFDISIDNGNEDLAEILQKLN
notes: as for B1
In the case of B5, the 50% inhibitory concentration (IC50) in assay [1] was determined as 0.0148 nM. Further, in assay [2], the Kd amounted to 0.174 nM, the koff turned out to be 0.000126 s⁻¹ and the on-rate constant (kon) was found to be 725000 M⁻¹ s⁻¹. The “HEK Stat6 Inhibition IC50” value in assay [3] amounted to 0.0035 nM.

B6: C06_19F8 (designed binder)
chain: DLGKKLLEAARAGQDDEVRILMANGADVNATDDWGDTLLHLAATDGHLEIVEVLLKNGADVNASDSQGLTPLHLAAYYGHLEIVEVLLKYGADVNANDHHGITPLHLAAFAGHLEIVEVLLKYGADVNAQDKFGKTAFDISIDNGNEDLAEILQKLN
notes: as for B1
In assay [1], B6 returned an IC50 of 0.0176 nM. In assay [2], this molecule yielded a dissociation constant Kd of 1.41 nM, an off-rate (koff) of 5.18e-05 s⁻¹ and a kon of 36600 M⁻¹ s⁻¹. Further, the “HEK Stat6 Inhibition IC50” value in assay [3] was found to be 0.0152 nM.

B7: C06_17A11 (designed binder)
chain: DLGKKLLEAARAGQDDEVRILMANGADVNAIDEWGDTPLHLAAIEGHLEIVEVLLKYGADVNASDAMGMTPLHLAAVYGYLEIVEVLLKNGADVNAMDFSGFTPLHLAAFSGHLEIVEVLLKYGADVNAQDKFGKTAFDISIDNGNEDLAEILQKLN
notes: as for B1
As for B7, the half-inhibitory concentration (IC50) in assay [1] was 0.0744 nM. In assay [2], this molecule registered a Kd of 0.136 nM, an off-rate (koff) of 0.00014 s⁻¹ and a kon of 1.03e+06 M⁻¹ s⁻¹. Moreover, in assay [3], the “HEK Stat6 Inhibition IC50” value was 0.003 nM.

B8: C06_54C2 (designed binder)
chain: DLGKKLLEAARAGQDDEVRILMANGADVNATDDWGDTLLHLAATDGHLEIVEVLLKNGADVNAIDAMGMTPLHLAAVYGYLEIVEVLLKNGADVNAMDFSGFTPLHLTAFSGHLEIVEVLLKYGADVNAQDKFGKTAFDISIDNGNEDLAEILQKLN
notes: as for B1
The molecule B8 had a 50% inhibitory concentration (IC50) in assay [1] of 0.0168 nM. In assay [2], the equilibrium dissociation constant (Kd) is 0.4 nM, the koff worked out at 0.000161 s⁻¹ and the kon was 403000 M⁻¹ s⁻¹. Further, the “HEK Stat6 Inhibition IC50” value in assay [3] came to 0.0032 nM.

B9: C06_20B8 (designed binder)
chain: DLGKKLLEAASAGQDDEVHILMANGADVNAVDHDGFTPLHLAAADGHLEIVEVLLKHGADVNADDNFGWTPLHLAAFFGHLEIVEVLLKHGADVNAKDQTGLTPLHLAAVDGHLEIVEVLLKHGADVNAQDKFGKTAFDISIDNGNEDLAEILQKLN
notes: as for B1
In the case of B9, the IC50 in assay [1] is 0.0205 nM. In assay [2], this molecule had a Kd of 0.0809 nM, a koff of 0.000163 s⁻¹ and a kon of 2.02e+06 M⁻¹ s⁻¹. Moreover, in assay [3], the “A549 TARC Inhibition IC50” value was found to be 0.288 nM, the “HEK Stat6 Inhibition IC50” value stood at 0.004 nM and the “Type 1 Complex inhibition IC50” value turned out to be 0.0038 nM.

B10: C06_42C7 (designed binder)
chain: DLGKKLLEAASAGQDDEVRILMANGADVNAVDHDGFTPLHLAAADGHLEIVEVLLKHGADVNADDNFGWTPLHLAAFFGHLEIVEVLLKHGADVNAKDQTGLTPLHLAAVDGHLEIVEVLLKHGADVNAQDKFGKTAFDISIDNGNEDLAEILQKLN
notes: as for B1
As to B10, the IC50 in assay [1] was determined as 0.0459 nM. Also, in assay [2], the affinity, expressed as Kd, was 0.0978 nM; the koff was 0.000179 s⁻¹; the on-rate (kon) was found to be 1.83e+06 M⁻¹ s⁻¹. Further, in assay [3], the “HEK Stat6 Inhibition IC50” value amounted to 0.0068 nM.

B11: C06_28D4 (designed binder)
chain: DLGKELLEAASAGQDDEVHILMANGADVNAVDHDGFTPLHLAAADGHLEIVEVLLKHGADVNADDNFGWTPLHLAAFFGHLEIVEVLLKHGADVNAKDQTGLTPLHLAAVDGHLEIVEVLLKNGADVNAQDKFGKTAFDISIDNGNEDLAEILQKLN
notes: as for B1
B11 displayed an IC50 in assay [1] of 0.0353 nM. Further, in assay [2], the Kd was found to be 0.0856 nM, the koff came out at 0.000138 s⁻¹ and the on-rate (kon) is 1.62e+06 M⁻¹ s⁻¹. In addition, the “HEK Stat6 Inhibition IC50” value in assay [3] was 0.0032 nM.

B12: C06_14A4 (designed binder)
chain: DLGKKLLEAARAGQDDEVRILMANGADVNATDAWGLTPLHLAALLGHLEIVEVLLKHGADVNAHDETGFTPLHLAAVEGHLEIVEVLLKYGADVNASDILGRTPLHLAANFGHLEIVEVLLKYGADVNAQDKFGKTAFDISIDNGNEDLAEILQKLN
notes: as for B1
In assay [2], B12 gave a dissociation constant (Kd) of 0.0858 nM, a koff of 2.73e-05 s⁻¹ and an association rate constant (kon) of 318000 M⁻¹ s⁻¹.

B13: C06_4A7 (designed binder)
chain: DLGKKLLEAARAGQDDEVRILMANGADVNAEDDWGLTPLHLAAMLGHLEIVEVLLKYGADVNAKDDTGFTPLHLAAVEGHLEIVEVLLKYGADVNASDILGRTPLHLAANFGHLEIVEVLLKYGADVNAQDKFGKTAFDISIDNGNEDLAEILQKLN
notes: as for B1
Molecule B13 came in with an IC50 in assay [1] of 0.0443 nM. In addition, the “HEK Stat6 Inhibition IC50” value in assay [3] turned out to be 0.444 nM.

B14: C06_42A11 (designed binder)
chain: DLGKKLLEAASVGQDDEVHILMANGADVNATDAWGLTPLHLAALLGHLEIVEVLLKHGADVNAHDETGFTPLHLAAVEGHLEIVEVLLKYGADVNASDILGRTPLHLAANFGHLEIVEVLLKHGADVNAQDKFGKTAFDISIDNGNEDLAEILQKLN
notes: as for B1
B14: in assay [1], the half-maximal inhibitory concentration (IC50) was 0.0656 nM. In assay [2], this molecule showed a Kd of 0.0075 nM, an off-rate constant (koff) of 5.43e-06 s⁻¹ and an on-rate constant (kon) of 727000 M⁻¹ s⁻¹. Also, in assay [3], the “A549 TARC Inhibition IC50” value was 0.325 nM, the “HEK Stat6 Inhibition IC50” value amounted to 0.0193 nM and the “Type 1 Complex inhibition IC50” value was found to be 0.0032 nM.

B15: C06_43G2 (designed binder)
chain: DLGKKLLEAARAGQDDEVRILMANGADVNAKDVTGETPLHLASWEGHLEIVEVLLKHGADVNAQDLFGITPLHLAAATDGHLEIVEVLLKNGADVNATDSNGFTPLHLAASYGHLEIVDVLLKNGADVNAHDFDGFTPLHLAASWGHLEIVEVLLKYGADVNAQDKFGKTAFDISIDNGNEDLAEILQKLN
notes: as for B1
Take B15: the IC50 in assay [1] is 0.0235 nM. Further, in assay [2], the Kd stood at 0.0427 nM, the off-rate constant (koff) was found to be 5.98e-05 s⁻¹ and the on-rate constant (kon) was 1.4e+06 M⁻¹ s⁻¹. Besides, in assay [3], the “A549 TARC Inhibition IC50” value is 0.262 nM, the “HEK Stat6 Inhibition IC50” value amounted to 0.0016 nM and the “Type 1 Complex inhibition IC50” value came out at 0.0008 nM.
